Test results as given in the supplement of paper PMC9233669.
Variants at the floor of the assay were thinned out.

Columns and labels:
biotinyl-Phe-oxazolone = assay: self-aminoacylation, catalytic enhancement (BFO) (fold over background); higher = more active; k-Seq, kA / k0A0; sequences stand for … in GGGAAUGGAUCCACAUCUACGAAUUC…UUCACUGCAGACUUGACGAAGCUG
How it was run: (§1)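 Working in 50 μL HEPES/NaCl/KCl/MgCl2/CaCl2 buffer with 5% acetonitrile at pH 6.9–7.0, mutagenized RNA pools (0.43 μM; 21-nt variable region) were reacted with 2–1250 μM of each biotinyl-aminoacyl-oxazolone for 90 minutes at room temperature. Streptavidin capture followed, with quantification by triplicate qPCR and Illumina sequencing. Catalytic enhancement is reported as median kA over the uncatalyzed rate, the low-activity peak of a bimodal Gaussian fit to the data.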

biotinyl-Ile-oxazolone = assay: self-aminoacylation, catalytic enhancement (BIO) (fold over background); higher = more active; k-Seq, kA / k0A0; sequences stand for … in GGGAAUGGAUCCACAUCUACGAAUUC…UUCACUGCAGACUUGACGAAGCUG
How it was run: as §1

biotinyl-Met-oxazolone = assay: self-aminoacylation, catalytic enhancement (BMO) (fold over background); higher = more active; k-Seq, kA / k0A0; sequences stand for … in GGGAAUGGAUCCACAUCUACGAAUUC…UUCACUGCAGACUUGACGAAGCUG
How it was run: as §1

biotinyl-Val-oxazolone = assay: self-aminoacylation, catalytic enhancement (BVO) (fold over background); higher = more active; k-Seq, kA / k0A0; sequences stand for … in GGGAAUGGAUCCACAUCUACGAAUUC…UUCACUGCAGACUUGACGAAGCUG
How it was run: as §1

biotinyl-Leu-oxazolone = assay: self-aminoacylation, catalytic enhancement (BLO) (fold over background); higher = more active; k-Seq, kA / k0A0; sequences stand for … in GGGAAUGGAUCCACAUCUACGAAUUC…UUCACUGCAGACUUGACGAAGCUG
How it was run: as §1

biotinyl-Trp-oxazolone = assay: self-aminoacylation, catalytic enhancement (BWO) (fold over background); higher = more active; k-Seq, kA / k0A0; sequences stand for … in GGGAAUGGAUCCACAUCUACGAAUUC…UUCACUGCAGACUUGACGAAGCUG
How it was run: as §1

Sequence	self-aminoacylation (biotinyl-Phe-oxazolone)	self-aminoacylation (biotinyl-Ile-oxazolone)	self-aminoacylation (biotinyl-Met-oxazolone)	self-aminoacylation (biotinyl-Val-oxazolone)	self-aminoacylation (biotinyl-Leu-oxazolone)	self-aminoacylation (biotinyl-Trp-oxazolone)
CUAAUUCAAACGAUCGGUCUG [Fam1A.1 aminoacylation ribozyme variant]	0.8	0.689	0.696	0.648	0.72	0.656
CUAAUUUAAACAAUCGGUCUG [Fam1A.1 aminoacylation ribozyme variant]	0.662	0.9	0.866	0.872	0.791	0.6
CUACACUCCAAGCAAUCGGUC [Fam1B.1 aminoacylation ribozyme variant]	2.74	0.949	0.76	0.934	0.747	1.22
CUACACUUCAAGCAAGCGGUC [Fam1B.1 aminoacylation ribozyme variant]	0.583	0.719	0.62	0.637	0.772	0.541
CUACACUUCACGCAAUCGGUC [Fam1B.1 aminoacylation ribozyme variant]	0.68	0.801	0.777	0.888	0.758	0.895
CUACACUUGAAGCAAUCGGUC [Fam1B.1 aminoacylation ribozyme variant]	0.507	0.662	0.597	0.64	0.583	0.509
CUACAUCAAACAAACGGUCUG [Fam1A.1 aminoacylation ribozyme variant]	1.01	1.07	1	0.901	0.771	1.09
CUACAUCAAACAAUCGGUCAG [Fam1A.1 aminoacylation ribozyme variant]	0.912	0.629	0.759	0.714	0.56	0.586
CUACAUCAAACAAUCGGUCGG [Fam1A.1 aminoacylation ribozyme variant]	1.36	0.773	0.954	0.981	1.16	0.994
CUACAUCAAACAAUCGGUUUG [Fam1A.1 aminoacylation ribozyme variant]	1.9	0.906	0.646	0.821	0.781	1.05
CUACAUCAAACGAUCGGUCUG [Fam1A.1 aminoacylation ribozyme variant]	0.836	0.728	0.657	0.93	0.78	0.778
CUACCUCAAACAAUCGGUCAG [Fam1A.1 aminoacylation ribozyme variant]	1.33	0.808	1.01	0.873	1.01	0.767
CUACCUCAAACAAUCGGUCCG [Fam1A.1 aminoacylation ribozyme variant]	1.05	1.04	1.15	1.18	1.9	1.2
CUACCUCAAACAAUCGGUCUC [Fam1A.1 aminoacylation ribozyme variant]	2.7	0.869	0.879	1.07	0.752	1.42
CUACCUCAAAGAAUCGGUCUG [Fam1A.1 aminoacylation ribozyme variant]	1.97	1.07	1.15	1.07	0.749	1.53
CUACCUCACACAAUCGGUCUG [Fam1A.1 aminoacylation ribozyme variant]	1.81	0.861	0.672	1.06	0.988	0.744
CUACGACAAACAAUCGGUCUG [Fam1A.1 aminoacylation ribozyme variant]	1.69	0.748	0.713	0.654	0.655	0.855
CUACGUCAAACAAUCGAUCUG [Fam1A.1 aminoacylation ribozyme variant]	0.827	0.801	0.903	0.794	0.617	1.06
CUACGUCAAACAAUCGGGCUG [Fam1A.1 aminoacylation ribozyme variant]	0.86	1.9	2.42	2.33	2.05	2.32
CUACGUCAAACAAUCGGUAUG [Fam1A.1 aminoacylation ribozyme variant]	1.02	1.12	1.39	1.12	1.11	1.53
CUACGUCAAACACUCGGUCUG [Fam1A.1 aminoacylation ribozyme variant]	10.9	1.85	1.6	2.18	1.83	2.65
CUACGUCUAACAAUCGGUCUG [Fam1A.1 aminoacylation ribozyme variant]	1.21	0.89	0.918	0.856	0.941	0.703
CUACGUUAAACAAUCGGUCUG [Fam1A.1 aminoacylation ribozyme variant]	0.927	1.19	1.16	1.19	1.17	1.05
CUACUACAAAAAAUCGGUCUG [Fam1A.1 aminoacylation ribozyme variant]	0.76	0.774	0.857	0.765	0.678	0.762
CUACUACAAACAAUCGAUCUG [Fam1A.1 aminoacylation ribozyme variant]	0.759	0.808	0.52	0.719	0.593	0.665
CUACUACAAACAAUCGGUAUG [Fam1A.1 aminoacylation ribozyme variant]	0.567	0.617	0.597	0.584	0.454	0.505

Sequence	self-aminoacylation (biotinyl-Phe-oxazolone)	self-aminoacylation (biotinyl-Ile-oxazolone)	self-aminoacylation (biotinyl-Met-oxazolone)	self-aminoacylation (biotinyl-Val-oxazolone)	self-aminoacylation (biotinyl-Leu-oxazolone)	self-aminoacylation (biotinyl-Trp-oxazolone)
CUACUACAAACACUCGGUCUG [Fam1A.1 aminoacylation ribozyme variant]	0.434	1.08	0.856	1.03	0.902	0.703
CUACUACAAUCAAUCGGUCUG [Fam1A.1 aminoacylation ribozyme variant]	0.981	0.767	0.616	0.682	0.699	0.669
CUACUCCAAACAAUCGCUCUG [Fam1A.1 aminoacylation ribozyme variant]	1.32	1.11	0.783	0.884	0.949	0.596
CUACUCCAAACAAUCGGUCUA [Fam1A.1 aminoacylation ribozyme variant]	2.18	0.767	0.638	0.808	0.746	1.05
CUACUCCAAACAAUGGGUCUG [Fam1A.1 aminoacylation ribozyme variant]	0.772	0.948	0.784	0.863	0.799	0.754
CUACUCCAAACAGUCGGUCUG [Fam1A.1 aminoacylation ribozyme variant]	3.1	0.953	0.958	1.06	1.1	0.323
CUACUCCAAACGAUCGGUCUG [Fam1A.1 aminoacylation ribozyme variant]	0.979	0.854	0.643	0.812	0.91	0.445
CUACUCCUAACAAUCGGUCUG [Fam1A.1 aminoacylation ribozyme variant]	0.659	0.748	0.504	0.774	0.667	0.441
CUACUGCAAACAAUCGCUCUG [Fam1A.1 aminoacylation ribozyme variant]	3.05	1.2	0.898	1.08	1.2	0.702
CUACUGCAAACAAUCGGUCUA [Fam1A.1 aminoacylation ribozyme variant]	0.688	0.876	0.868	0.871	0.858	0.72
CUACUGGAAACAAUCGGUCUG [Fam1A.1 aminoacylation ribozyme variant]	0.507	0.887	0.933	0.837	0.885	0.514
CUACUUAAAACAAUCAGUCUG [Fam1A.1 aminoacylation ribozyme variant]	0.689	0.877	0.723	0.915	0.715	0.512
CUACUUAAAACAAUCGGUAUG [Fam1A.1 aminoacylation ribozyme variant]	0.513	0.556	0.55	0.574	0.53	0.339
CUACUUAAAACAAUCGGUCAG [Fam1A.1 aminoacylation ribozyme variant]	0.552	0.636	0.703	0.79	0.66	0.384
CUACUUAAAACAAUCGGUGUG [Fam1A.1 aminoacylation ribozyme variant]	0.821	0.596	0.72	0.684	0.96	1.17
CUACUUAAAACAAUGGGUCUG [Fam1A.1 aminoacylation ribozyme variant]	0.9	1.05	1.28	1.05	1.03	0.653
CUACUUAAAUCAAUCGGUCUG [Fam1A.1 aminoacylation ribozyme variant]	0.911	0.887	0.702	0.91	0.793	0.691
CUACUUCAAAAAAUCGCUCUG [Fam1A.1 aminoacylation ribozyme variant]	0.901	0.539	0.492	0.484	0.486	0.727
CUACUUCAAAAAAUCGGUCUA [Fam1A.1 aminoacylation ribozyme variant]	4.37	0.842	0.725	0.697	0.79	2.39
CUACUUCAAAAGAUCGGUCUG [Fam1A.1 aminoacylation ribozyme variant]	1.08	0.973	0.728	0.724	0.859	0.938
CUACUUCAAACAAACGGGCUG [Fam1A.1 aminoacylation ribozyme variant]	1.65	1.2	0.993	0.934	0.999	0.862
CUACUUCAAACAAACGGUCAG [Fam1A.1 aminoacylation ribozyme variant]	0.883	0.73	0.6	0.682	0.581	0.787
CUACUUCAAACAAACUGUCUG [Fam1A.1 aminoacylation ribozyme variant]	0.742	0.684	0.562	0.717	0.547	0.5
CUACUUCAAACAACCCGUCUG [Fam1A.1 aminoacylation ribozyme variant]	0.796	0.906	0.657	1.04	0.911	0.923
CUACUUCAAACAACCGGUCUC [Fam1A.1 aminoacylation ribozyme variant]	0.745	0.933	0.724	0.728	0.619	0.734
